Laboratory results: patent US20210253701A1 (Regeneron, published 2021)

Columns and labels:
[1] = target: T1, human CD3 (cell surface-expressed) (human, UniProt P07766 23-207; P04234 22-171); experiment: FACS, Jurkat cells
T1 construct: CD3 as carried by Jurkat cells or human T cells (part of the TCR complex, which also holds CD3-gamma and zeta); also called human CD3 expressing Jurkat cells; JURKAT

[2] = target: human MUC16 on OVCAR3 cells (human); experiment: cell-based or functional assay
[3] = target: T1, human CD3 (cell surface-expressed); experiment: cell-based or functional assay
[4] = target: T2, human MUC16 on OVCAR3 cells (human); experiment: FACS, OVCAR3 (MUC16+) cells
T2 construct: Endogenous MUC16 of the OVCAR3 cell line; also called Mucin 16

[5] = target: T3, soluble heterodimeric hCD3ε/δ.mFc protein (human); experiment: SPR 37 C, antigen-capture format
T3 construct: also called soluble human CD3; human CD3 heterodimeric protein
T3 sequence (P07766 23-126, stated change not applied, chain 1 of 2): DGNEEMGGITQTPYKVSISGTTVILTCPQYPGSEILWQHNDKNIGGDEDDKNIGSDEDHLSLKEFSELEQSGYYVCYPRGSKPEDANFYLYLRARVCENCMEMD
T3 sequence (P04234 22-105, stated change not applied, chain 2 of 2, further chain): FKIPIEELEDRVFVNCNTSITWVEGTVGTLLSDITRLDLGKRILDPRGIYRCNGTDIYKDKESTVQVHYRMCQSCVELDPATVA

T1 sequence (P07766 23-207 limits assumed, chain 1 of 2): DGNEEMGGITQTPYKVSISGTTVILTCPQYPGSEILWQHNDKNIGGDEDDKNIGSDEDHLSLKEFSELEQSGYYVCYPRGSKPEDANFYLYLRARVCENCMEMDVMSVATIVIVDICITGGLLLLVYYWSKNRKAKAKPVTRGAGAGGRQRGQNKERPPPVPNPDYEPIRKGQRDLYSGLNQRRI
T1 sequence (P04234 22-171 limits assumed, chain 2 of 2): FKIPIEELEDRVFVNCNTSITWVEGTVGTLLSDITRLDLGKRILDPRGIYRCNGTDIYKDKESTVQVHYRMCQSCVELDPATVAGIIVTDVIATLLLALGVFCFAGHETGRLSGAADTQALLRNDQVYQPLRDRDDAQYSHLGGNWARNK

| EC50 [1] | OVCAR3 cell depletion EC50 [2] | T cell activation EC50 [3] | EC50 [4] | Kd [5] | Binder |
| --- | --- | --- | --- | --- | --- |
|  |  |  |  | > 500 nM | BSPSMA/CD3-004 (bispecific antibody) chain 1: QVQLVESGGGVVQPGRSLRLSCAASGFTFSSYGMHWVRQAPGKGLEWVAVISYAGNNKYYADSVKGRFTVSRDNSKKTLYLQMNSLRSEDTAVYYCAKDSYYDFLTDPDVLDIWGQGTMVTVSS chain 2: EVQLVESGGGLVQPGRSLRLSCAASGFTFDDYSMHWVRQAPGKGLEWVSGISWNSGSIGYADSVKGRFTISRDNAKNSLYLQMNSLRAEDTALYYCAKDGSGYGKFYYYGMDVWGQGTTVTVSS chain 3: DIQMTQSPSSLSASVGDSVTITCRASQSINNYLNWYQQKPGKAPKLLIYTASSLLSGVPSRFSGSGSGTDFTLTISGLHPEDFATYFCQQSFSTPPITFGQGTRLDIK |
|  |  |  |  | > 500 nM | BSPSMA/CD3-400 (bispecific antibody) chain 1: QVQLVESGGGVVQPGRSLRLSCAASGFTFSSYGMHWVRQAPGKGLEWVAVISYAGNNKYYADSVKGRFTVSRDNSKKTLYLQMNSLRSEDTAVYYCAKDSYYDFLTDPDVLDIWGQGTMVTVSS chain 2: EVQLVESGGGLVQPGRSLRLSCAASGFTFDDYAMHWVRQAPGKGLEWVSGISWNSGSIGYADSVKGRFTISRDNAKNSLYLQMNSLRAEDTALYYCAKDGSGYGKFYYYGMDVWGQGTTVTVSS chain 3: DIQMTQSPSSLSASVGDSVTITCRASQSINNYLNWYQQKPGKAPKLLIYTASSLLSGVPSRFSGSGSGTDFTLTISGLHPEDFATYFCQQSFSTPPITFGQGTRLDIK |

More lines, now with the values behind:

| Binder | EC50 [1] | OVCAR3 cell depletion EC50 [2] | T cell activation EC50 [3] | EC50 [4] | Kd [5] |
| --- | --- | --- | --- | --- | --- |
| BSMUC16/CD3-001 (bispecific antibody) chain 1: QVQLVESGGGLVKPGGSLRLSCAASGFTFSNYYMSWVRQAPGKGLEWISYISGRGSTIFYADSVKGRITISRDNAKNSLFLQMNSLRAEDTAVYFCVKDRGGYSPYWGQGTLVTVSS chain 2: EVQLVESGGGLVQPGRSLRLSCAASGFTFDDYSMHWVRQAPGKGLEWVSGISWNSGSKGYADSVKGRFTISRDNAKNSLYLQMNSLRAEDTALYYCAKYGSGYGKFYHYGLDVWGQGTTVTVSS chain 3: not shown | 3.21 nM | 0.0224 nM | 0.00588 nM | 1.2 nM |  |
| BSPSMA/CD3-1800 (bispecific antibody) chain 1: QVQLVESGGGVVQPGRSLRLSCAASGFTFSSYGMHWVRQAPGKGLEWVAVISYAGNNKYYADSVKGRFTVSRDNSKKTLYLQMNSLRSEDTAVYYCAKDSYYDFLTDPDVLDIWGQGTMVTVSS chain 2: EVQLVESGGGLVQPGRSLRLSCAASGFTFDDYSMHWVRQAPGKGLEWVSGISWNSGSIGYADSVKGRFTISRDNAKNSLYLQMNSLRAEDTALYYCAKDGSGYGKFYYYGLDVWGQGTTVTVSS chain 3: DIQMTQSPSSLSASVGDSVTITCRASQSINNYLNWYQQKPGKAPKLLIYTASSLLSGVPSRFSGSGSGTDFTLTISGLHPEDFATYFCQQSFSTPPITFGQGTRLDIK |  |  |  |  | > 500 nM |
| BSMUC16/CD3-002 (bispecific antibody) chain 1: QVQLVESGGGLVKPGGSLRLSCAASGFTFSNYYMSWVRQAPGKGLEWISYISGRGSTIFYADSVKGRITISRDNAKNSLFLQMNSLRAEDTAVYFCVKDRGGYSPYWGQGTLVTVSS chain 2: EVQLVESGGGLVQPGRSLRLSCAASGFTFDDYSMHWVRQAPGKGLEWVSGISWNSGSIGYADSVKGRFTISRDNAKNSLYLQMNSLRAEDTALYYCAKDGSGYGKFYYYGMDVWGQGTTVTVSS chain 3: not shown |  | 0.0306 nM | 0.0101 nM | 2.69 nM |  |
